Measurements as given in US10772928B2, “Modulation and detection of a neuronal alternative splicing regulatory network for treatment and diagnosis of neurological disorders” (The Governing Council of the University of Toronto, priority 2014, dated 2020).

T1: nSR100 (Mus musculus, UniProt Q8BKA3)
T1 construct: host or cells: mouse N2A cells
T1 sequence (Q8BKA3 1-608): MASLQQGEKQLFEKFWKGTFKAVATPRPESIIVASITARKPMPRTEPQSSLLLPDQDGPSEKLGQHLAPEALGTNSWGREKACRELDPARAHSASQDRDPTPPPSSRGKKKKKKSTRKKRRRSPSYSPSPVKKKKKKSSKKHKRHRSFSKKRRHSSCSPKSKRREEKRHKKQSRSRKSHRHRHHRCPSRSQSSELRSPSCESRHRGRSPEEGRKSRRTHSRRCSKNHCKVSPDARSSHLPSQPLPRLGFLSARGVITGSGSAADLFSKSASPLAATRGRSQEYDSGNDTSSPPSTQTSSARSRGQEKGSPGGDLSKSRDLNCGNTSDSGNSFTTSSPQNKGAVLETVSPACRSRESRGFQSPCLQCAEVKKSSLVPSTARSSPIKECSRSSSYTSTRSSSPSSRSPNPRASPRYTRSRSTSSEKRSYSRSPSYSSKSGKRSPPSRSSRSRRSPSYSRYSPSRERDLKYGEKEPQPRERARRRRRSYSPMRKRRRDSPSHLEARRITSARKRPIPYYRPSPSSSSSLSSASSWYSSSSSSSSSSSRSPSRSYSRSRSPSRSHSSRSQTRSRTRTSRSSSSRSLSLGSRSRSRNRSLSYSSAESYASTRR


Target: T1, nSR100
Assay: AP-MS nSR100 interaction partners from mouse N2A cells (Table 5)
Assay type: binding
Conditions: for AvgP (average of the SAINT scores) / MaxP (maximal SAINT score): bait Srrm4; for FoldChange between the prey Avg spectra of the bait and control purifications: bait Srrm4, 0.1 added to prevent division by 0; for AvgSpec (average number of spectra per replicate): bait Srrm4, 2 replicates; for Spectra (number of spectra for the prey in the purification of the bait): AP-MS; for SpecSum: bait Srrm4, sum of spectra over 2 replicates
[1] = bait Srrm4, biological replicate 1 (first number of the cell)
[2] = bait Srrm4, biological replicate 2 (second number of the cell)

Description: By applying affinity purification coupled to mass-spectrometry (AP-MS), several interaction nSR100 partner proteins were detected that provide insight into mechanisms of post-translational regulation of nSR100 levels.

Molecule | AvgP (average of the SAINT scores) | MaxP (maximal SAINT score) | FoldChange between the prey Avg spectra of the bait and control purifications | AvgSpec (average number of spectra per replicate) | Spectra (number of spectra for the prey in the purification of the bait) [1] | Spectra (number of spectra for the prey in the purification of the bait) [2] | SpecSum
Rab5c (protein, UniProt P35278 1-216, looked up) Ras-related protein Rab-5C: MAGRGGAARPNGPAAGNKICQFKLVLLGESAVGKSSLVLRFVKGQFHEYQESTIGAAFLTQTVCLDDTTVKFEIWDTAGQERYHSLAPMYYRGAQAAIVVYDITNTDTFARAKNWVKELQRQASPNIVIALAGNKADLASKRAVEFQEAQAYADDNSLLFMETSAKTAMNVNEIFMAIAKKLPKNEPQNAAGAPGRTRGVDLQESNPASRSQCCSN | 0.97 | 0.99 | 25 | 2.5 | 3 | 2 | 5
Sfswap (protein, UniProt Q3USH5 1-945, looked up) Splicing factor, suppressor …: MYGAGGGRAKPERKGGVKEEAGPGGTGTGGNRVELLVFGYACKLFRDDERALAQEQGQHLIPWMGDPKILIDRYDGRGHLHDLSAYDAEYATWNRDYQLSEEEARVEALCDEERYLALHTDLLEEEARQEEEYKRLSEALAEDGNYSAVGFTYGSDYYDPSEPTEEEEPSKQREKNEAENLEENEEPFIAPLGLSVPSDVELPPTAKMHAIIERTANFVCKQGAQFEIMLKAKQARNSQFDFLRFDHYLNPYYKFIQKAMKEGRYTVLAESKNEEKKKSGPTSDNEEEDDEEDGSYLHPSLFASKKSSRLEELMKPLKVVDPDHPLAALVRKAQADSSAPAPPTADGTPAQPSQVEYTADSTVAAMYYSYYMLPDGTYCLAPPPPGIDVATYYSTLPAGVTVSSSPGVTTTVPPPPGTTPPPPPTTAEPSSGVTSTTTTTSALAPVAIIPPPPDIQPVIDKLAEYVARNGLKFETSVRAKNDQRFEFLQPWHQYNAYYEFKKQFFLQKEGGGSTQAASTAEEAPTETAVEESGEAGEDGAPEGMAETGGRGSGKKEAGSSKSTVDGKLVKASFAPISFAIKAKENDLLPLEKNRVKLDDDSEEDEESRECQESTSSVANPSPAAAPPSVAVEEKKPQLTQEELEAKQAKQKLEDRLAAAAREKLAQASKESKEKQLQAERKRKAALFLQTLKNPLPEAEVGKLEESTFGVEDTGVMPCPLLVGGRTLPILEGKPPERPSNRCRDPPREEEREKKKKKHKKRSRTRSRSPKYHSSSKPRSRSHSKAKHSLPSAYRTVRRSRSRSRSPRRRAHSPERRREERSVPTAYRMSGSPGVSRKRTRSRSPHEKKKKRRSRSRTKAKARSQSTSPSKQAAQRPSAHSAHSASISPVESRGSSQERSRGVSQEKDGQISSAIVSSVQSKITQDLMAKVRAMLAASKNLQTSAS | 0.97 | 0.99 | 25 | 2.5 | 2 | 3 | 5
Fam76b (protein, UniProt Q80XP8 2-339, looked up) Protein FAM76B: AASALYACTKCTQRYPFEELSQGQQLCKECRIAHPIVKCTYCRSEFQQESKTNTICKKCAQNVKQFGTPKPCQYCNIIAAFIGTKCQRCTNSEKKYGAPQTCEQCKQQCAFDRKEEGRRKVDGKLLCWLCTLSYKRVLQKTKEQRKSLGSSHSNSSSSSLTEKDQHHSKHHHHHHHHHHRHSSGHHKVSSLSPEQEQGLWKQSHKSSAAIQNETPKKKPKLESKPSNGDSSSINQSADSGGTDNFVLISQLKEEVMSLKRLLQQRDQTILEKDKKLTELKADFQYQESNLRTKMNSMEKAHKETVEQLQAKNRELLKQVAALSKGKKFDKSGSVLTSP | 0.98 | 1 | 35 | 3.5 | 2 | 5 | 7

The next lines start with the values.

AvgP (average of the SAINT scores) | MaxP (maximal SAINT score) | FoldChange between the prey Avg spectra of the bait and control purifications | AvgSpec (average number of spectra per replicate) | Spectra (number of spectra for the prey in the purification of the bait) [1] | Spectra (number of spectra for the prey in the purification of the bait) [2] | SpecSum | Molecule
0.97 | 1 | 30 | 3 | 2 | 4 | 6 | Wdr11 (protein, UniProt Q8K1X1 1-1223, looked up) WD repeat-containing protein …: MLPYTVNFKVSARTLTGALNAHNKAAVDWGWQGLIAYGCHSLVVVIDSNTAQTLQVLEKHKADIVKVRWARENYHHNIGSPYCLRLASADVTGKIIVWDVAAGVAQCEIQEHVKPIQDVQWLWNQDASRDLLLAIHPPNYIVLWNADTGTKLWKKSYADNILSFSFDPFDPSHLTLLTSEGIVFISDFSPSKPPSGPGKKVYISSPHSSPAHNKLAAATGAKKALNKVKILITQEKPSADFVALNDCLQLAYLPSKRNHMLLLYPREILILDLEVNQTVGVIAIERTGVPFLQVIPCSQRDGLFCLHENGCITLRVRRSYNSICTTSNDEPDLDPVQELTYDLRSQCDAIRVTKTVRPFSMVCCPVNENAAALIVSDGRVMIWELKSAVCSRNARNSSGVSPLYSPVSFCGIPGGVLQNKLPDLSLDNMIGQSAIAGEEHPKGSILQEVHLKFLLTGLLSGLPSPQFAIRMCPPLTTKNIKTYQPLLAVGTSNGSVLVYHLTSGLLHKELSVHSCEVKGIEWTSLTSFLSFAASTPNNMGLVRNELQLVDLPTGRSTAFRGDRGNDESPIEMIKVSHLKQYLAVVFKDKPLELWDIRTCTLLREMSKSFPAITALEWSPSHNLKSLRKKQLATREAMARQTVVSDAELGAVESSVISLLQEAESKAELSQNISAREHFVFTDNDGQVYHLTVEGNSVKDSARIPPDGSMGSITCIAWKGDTLVLGDMDGNLNFWDLKARVSRGIPTHRSWVRKIRFAPGKGNQKLIAMYNDGAEVWDTKEVQMVSSLRSGRNVTFRILDVDWCTSDKVILASDDGCIRVLEMSMKSTCFRMDEQELVEPVWCPYLLVPRAALALKAFLLHQPWNGRYSLDISHIDYPENEEIKTLLQEQLHALSNDIKKLLLDPDFSLLQRCLLVSRLYGDESELHFWTVAAHYLHSLSQAKSGDTVVTKEGAPKDRLSNPLDICYDVLCENTYFQKFQLERVNLQEVKRSTYDHTRKCTDQLLLLGQTDRAVQLLLETSADNQHYYCDSLKACLVTTVTSSGPSQSTIKLVATNMIANGKLAEGVQLLCLIDKAADACRYLQTYGEWNRAAWLAKVRLNSEECADVLKRWVDHLCSPQVNQKSKALLVLLSLGCFVSVAETLHSMRYFDRAALFVEACLKYGAFEVSEDTEKLIAAIYADYARSLKSLGFRQGAVRFASKAGAAGRDLLNELGSTKEELTES
0.97 | 0.98 | 3.3 | 16.5 | 16 | 17 | 33 | Grpel1 (protein, UniProt Q99LP6 28-217, looked up) GrpE protein homolog 1, …: CTATKQKNNGQNLDEDLGHCEPKTDPPSADKTLLEEKAKLEEQLRETMEKYKRALADTENLRQRSQKLVEEAKLYGIQGFCKDLLEVADILEKATQSVPKEEISNNNPHLKSLYEGLVMTEVQIQKVFTKHGLLRLDPIGAKFDPYEHEALFHTPVEGKEPGTVALVSKVGYKLHGRTLRPALVGVVKDA
